According to the supplement of paper PMC9170038:

The sequences below were run on MS2 coat protein (assay: apparent KD of MS2 coat protein, switch OFF state (with FMN for OFF switches, without FMN for ON switches); designed switch direction (-1 OFF switch, 1 ON switch): -1; higher = weaker reporter binding). Details: FMN input: 0 or 200 uM; Eterna round: R93 (includes R88 designs).
Method in brief: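 Apparent KD is reported per design as the median of normalised binding-curve fits across its clusters. The RNA switches were made by on-chip transcription from Illumina sequencing clusters. SNAP-549-labelled MS2 coat protein was then added in twofold steps (0.7 or 1.5 nM to 3 µM; 0.8–1.5 h to 10–20 min per step) in 100 mM Tris-HCl pH 7.5, 80 mM KCl, 4 mM MgCl2, without or with constant ligand.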

| Sequence | apparent KD of MS2 coat protein [nM] |
| --- | --- |
| AGGCGGGUAGGAUAUGCGUACUGACGGGAAAACUGAAUGGUACAUGAGGAUCACCCAUGUAGAAGGGCUCUGAA [Dora Explored 23 - Jieux - Exclusion 2] | 111 |
| AAAUAGCAAGGAUAUACAUGAGGAUCACCCAUGUGACCCAGGUAUGGCAUAGAAUAGAGUAGAAGGUGCAAAUA [Mod 4 of Ex 3 Tesla 8 - Jieux - Exclusion 3] | 149 |
| AAGAAGCAAGGAUAUACUAAAGAAAUGAAAAGAAAUAAAGAACAUGAGGAUCACCCAUGUAGAAGGUGCAAGAA [Webenre] | 39.3 |
| AACAUACAUGAGGAUCACCCAUGUCAGGAUAUGCCGGGUUAGAGCCAACUGAAAAAACGUAGAAGGGACGAAAA [Bilbo Confounded 7 - Jieux - Exclusion 1] | 90.3 |
| AAAAAGUGAGGAUAUACGCUGAGGAGUAGACACAACCAGGCGUAGAAGGCACAUGAGGAUCACCCAUGUCCAAA [EX4 Malc#11] | 39.8 |
| CUCUAGUCAGGAUAUGCAUGAAAUGAAGUGAAAGAAAAGAAGCAGAAGGGACAUGAGGAUCACCCAUGUUAGAA [EteRNA is fun!] | 38.3 |
| CUCAAGUAAGGAUAUCAAAGAAAAGAAGAGAAAGAAAAGAAUGAGAAGGUACAUGAGGAUCACCCAUGUAAGAA [EteRNA is fun!] | 23 |
| AAAAGGGCAGGAUAUGCGUACUCACGGGAAAGCUGGAUGGUACAUGAGGAUCACCCAUGUAGAAGGGCUAAAAA [Dora Explored 18 - Jieux - Exclusion 2] | 21.4 |
| GAAAAGCGAGGAUAUACAGAAAAAAAAACAAAAAAAGAAAAACAUGAGGAUCACCCAUGUAGAAGGCGCAAAAA [V1] | 49.4 |
| AGGGAGUGAGGAUAUACGAAAUAAAAAGAAGGAAAAAAAGAGUAGAAGGCACAUGAGGAUCACCCAUGUGAGAA [milkweed 12] | 20.6 |
| AAAAAGGCAGGAUAUGCAUACACACGAAAAAAAACGCUGGGACAUGAGGAUCACCCAUGUAGAAGGGCCAAAAA [Dora Explored 10 - Jieux - Exclusion 2] | 38.6 |
| AAGGUUCGAGGAUAUACAUAGAUACAGAUACAUGUAGACGUACAUGAGGAUCACCCAUGUAGAAGGCGAAUAUA [AJ 25] | 142 |
| AGAUAGUCAGGAUAUACGAAAAUGUAAAAAGAAGUGAAGGGACAUGAGGAUCACCCAUGUAGAAGGGACUAGAA [74%, Web mod - With 5 less C's] | 86.6 |
| AAGAAGCAAGGAUAUACAUGAGGAUCACCCAUGUAAAAGAAAGAGAAGGGAAAGAAAAGUAGAAGGUGCGAAAA [Ruby 71] | 23.7 |
| AAGAAUGGAGGAUAUACAUGAGGAUCACCCAUGUAAAAGAAAGAAGGGAAAGAGAAAAGUAGAAGGCCAAAGAA [Khuinefertemre Taharqa] | 53.8 |
| GAAAAGUCAGGAUAUACAGAUAAAAAAACGAAAAAAAAUCUGUAGAAGGGACAUGAGGAUCACCCAUGUAAAAG [Mat - Exclusion 4 - Mayanna - D101] | 33.2 |
| AGAAAACAUGAGGAUCACCCAUGUGAGGAUAUGCAAAUAUAUACGAAAGAUUAUAAAAGCAGAAGGCACAAAAG [Meechl MS2 Ex1] | 57.7 |
| AGAGGACAUGAGGAUCACCCAUGUGAGGAUAUGCACAACUAAGGACAAGAUCGCUAUAGCAGAAGGCACGUACU [JR_EXc001_Sub809] | 33.8 |
| AAGAAGUGAGGAUAUCGUGCUCGUCACAAAAGUGAUGAGUACGAGAAGGCACAUGAGGAUCACCCAUGUAAAGA [Opal 36] | 52.6 |
| AAUAACUCAGGAUAUACUAAAGAAAUGAAAAGAAAUAAAGAACAUGAGGAUCACCCAUGUAGAAGGGAGAAUAA [Wazad] | 55.1 |
| AAAAAACAUGAGGAUCACCCAUGUGAGGAUAUGCGAAAUAAAAAUAAAAUAAUAAAAAGCAGAAGGCACAAAAA [Amethyst 64] | 40.6 |
| GAAACUAGAGGAUAUACGAACAUGUCAAAAGACGUGAAGGGACAUGAGGAUCACCCAUGUAGAAGGCUAGAAAG [Mat - Exclusion 2 - JL mod - D100] | 35.1 |

| Sequence | apparent KD of MS2 coat protein [nM] |
| --- | --- |
| AAAAAGAGAGGAUAUACAUGAGGAUCACCCAUGUGACAUUAAAUAAAUAAAAUAAAAUGUAGAAGGCUCAAAAA [65%, Moding Exclusion3-cac2, 22] | 171 |
| CUCUAGUUAGGAUAUCCAAGAAAAGAAAAGAAAGAAAAGAAGGAGAAGGAACAUGAGGAUCACCCAUGUAAGAA [EteRNA is fun!] | 29.4 |
| GAAAAGUCAGGAUAUGCAGAUAAAAAAACGAAAAAAAAUCUGCAGAAGGGACAUGAGGAUCACCCAUGUAAAAA [Mat - Exclusion 4 - Mayanna - D109] | 45.7 |
| AUAAAGUCAGGAUAUGUAAAAAUAACGAAAGUUAUAAAUAAACAGAAGGGACAUGAGGAUCACCCAUGUGGAAU [Meechl MS2 EX4 62% 3] | 75 |
| AAAAAACAUGAGGAUCACCCAUGUGAGGAUAUCCAGAAUGGAAUAAAAUAACAAGAAAGGAGAAGGCACAAAAA [Ex 1 May 37] | 42.1 |
| AACAAGUCAGGAUAUUCGACAAGUAAAUAAGUAAAUCAAAAGAAGAAGGGACAUGAGGAUCACCCAUGUAAAUA [JR_Exc004_Sub401] | 21.3 |
| AAAAAGCAAGGAUAUACAUGAGGAUCACCCAUGUGAAAAAAAACAAUAAGAAGAAAAAGUAGAAGGUGCAAAAA [Ex 3 Tesla 1] | 18.8 |
| AAGAAGUGAGGAUAUACAUGAGGAUCACCCAUGUUAAGAAGAAUUUUAGAGAAAGAAGGUAGAAGGCACAAGAA [JR_Exclusion3_Sub5] | 35.3 |
| AGAAACCUAGGAUAUACAUGAGGAUCACCCAUGUAAAGAAAGAAGGGAGCCACAAGAAGUAGAAGGAGGAAGAA [JR_Exc003_Sub005] | 33.4 |
| AAGGGACAUGAGGAUCACCCAUGUGAGGAUAUGAUGCGAAUAAAGAAAUAAUAAAGCAUCAGAAGGCACACCAA [Mat - Exclusion 1 - Eli mod - D67] | 88.5 |
| AAGAACUGAGGAUAUACAUGAGGAUCACCCAUGUAAAAGAAAGAGGGAAAAGAGAAAAGUAGAAGGCAGAAGAA [Berenice II] | 32.4 |
| CUCUUGUGAGGAUAUCUAAGAAAAGAAGAGAAAGAAAAGAAAGAGAAGGCACAUGAGGAUCACCCAUGUAAGAA [EteRNA is fun!] | 56.1 |
| GUGUACAGAGGAUAUAUAUGAGCUAGGAAACUAGCAAGAUCACAUGAGGAUCACCCAUGUAGAAGGCUGUACAC [Ex2: 735] | 796 |
| AAGGUAUAAGGAUAUACAUAGAUACAGACACAUGUUCAAGUACAUGAGGAUCACCCAUGUAGAAGGUAUAUAUA [AJ 13] | 26.7 |
| AAGAAACAUGAGGAUCACCCAUGUGAGGAUAUCUAAAAGAAAAGAAAAGAAAGAAGAAGGAGAAGGCACAAAGG [H—] | 29 |
| CUAAAGCGAGGAUAUACAAUAAAAGGGAAUAAGGGAAAAAAACAUGAGGAUCACCCAUGUAGAAGGCGCCGAAA [Ex 2 #1] | 26.5 |
| AAGAACUAAGGAUAUACAAAAUAAAAGAAAAGAAAGAAAGAACAUGAGGAUCACCCAUGUAGAAGGUAGAAGAA [Khakheperre Senusret II] | 15.1 |
| AGAAAACAUGAGGAUCACCCAUGUCAGGAUAUCGAUGUCCAAAAAAAAGUGCGGGACUCGAGAAGGGACUUGGG [Mod of Erbelaed v.2 (favor state 2,lowered kcal by 2.7)] | 24.6 |
| AAGAAGCUAGGAUAUACUAAAGAAAUGAAAAGAAAUAAAGAACAUGAGGAUCACCCAUGUAGAAGGAGCAAGAA [Djefare] | 18.9 |
| ACCUGACAUGAGGAUCACCCAUGUCAGGAUAUGUACAUCAGGAAAAAAAAACUGAUGUACAGAAGGGACAAGGG [Design 6: Super Stable - A-U mutation 2] | 13.7 |
| AAAUACCAAGGAUAUACAUGAGGAUCACCCAUGUACAAACCCGUGGAACGGAUCGUUGGUAGAAGGUGGAAAUA [Isleusso] | 12.2 |
| AGCUAGUCAGGAUAUACGAACAUGUCAAAAGACGUGAAAGAACAUGAGGAUCACCCAUGUAGAAGGGACUAGCA [Mat - Exclusion 2 - JL-Eli mod - D48] | 18 |
